Test results reported in PMC2723105, “DNA binding by Corynebacterium glutamicum TetR-type transcription regulator AmtR”.
Positions count from the first letter of the chain named.

Assays:
Experiment in all cases: EMSA
Conditions in all cases: EMSA: DIG gel shift kit (Roche) conditions, 0.04 ng DNA, native 6% PAGE in 0.5x TBE; SPR: HBS-EP running buffer, 25 °C, BIAcoreX, nonspecific 30-mer DNA in the …
[1] = target: T1, AmtR-MBP S55A S55A (Corynebacterium glutamicum ATCC13032) (UniProt H7C699)
T1 sequence: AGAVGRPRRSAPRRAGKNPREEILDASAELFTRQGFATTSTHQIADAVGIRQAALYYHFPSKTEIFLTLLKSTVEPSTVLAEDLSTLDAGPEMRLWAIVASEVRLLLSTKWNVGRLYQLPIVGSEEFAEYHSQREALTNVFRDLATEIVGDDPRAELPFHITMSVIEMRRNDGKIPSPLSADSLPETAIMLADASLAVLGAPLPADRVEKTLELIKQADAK

[2] = target: T2, AmtR-MBP T42A T42A (Corynebacterium glutamicum ATCC13032) (UniProt H7C699)
T2 sequence: T1 sequence with T41A, A54S

[3] = target: T3, AmtR-MBP Y57A Y57A (Corynebacterium glutamicum ATCC13032) (UniProt H7C699)
T3 sequence: T1 sequence with A54S, Y56A

[4] = target: T4, AmtR-MBP Y58A Y58A (Corynebacterium glutamicum ATCC13032) (UniProt H7C699)
T4 sequence: T1 sequence with A54S, Y57A

[5] = test system: AmtR-MBP T33A (Corynebacterium glutamicum ATCC13032)
[6] = test system: AmtR-MBP L71A (Corynebacterium glutamicum ATCC13032)
[7] = test system: AmtR-MBP E30A (Corynebacterium glutamicum ATCC13032)

| Substance | Kd [1] | binding [2] | binding [3] | binding [4] | Kd [5] | Kd [6] | Kd [7] |
| --- | --- | --- | --- | --- | --- | --- | --- |
| GCTGGGCTAGAAACCCGATAAGCGAGAACCACCTGTCGGATGTTGTCTGGCAGGTGGTTTTCTTTTGCCTGGGTACCACCAAAAAGCAGCTGTGATGCACTTAACAATTCATTAAATTACCTGTTAAACTATAGAAAATATCCAAAACCCTCCAAAACCTATTCTATAGATCTATTGAAATTAGTTTCTGTAGGTCTATAGTTAGAGCTGGTTCAAGGGGTGTCAATCCCAAAAGGCACTCCTTGAACTCATGAAAAAGCTTGACAAAACTTCAACGTCAAAGGAGGTCATCCACGC (double strand) [amtB promoter PCR fragment] | 71 µM | binds | binds more weakly | binds more weakly | – | – | – |
| amtB promoter PCR fragment | 71 µM | – | – | – | 2.2 µM | 20 µM | 10 µM |
